Test results as given in patent US20070213253A1, “Synuclein Mutant Having Aggregation-Inhibitory Activity” (priority 2003, published 2007).

Molecular target: T1, wild type α-synuclein (Homo sapiens, UniProt P37840)
T1 construct: made in house; host or cells: Escherichia coli (pTYB1/α-syn; strain ER2566 is named for the mutants)
Experiment: Inhibition of fibril formation of wild type α-synuclein by partial structure peptide, TfT fluorescence
Assay type: biochemical
Details: peptide 0.2 mg/ml in 2 mg/ml wild type α-synuclein, 37° C.
Experimental: A synthetic α-synuclein partial structure peptide consisting of 10 amino acid residues of NH2-[…]COOH was dissolved at 0.2 mg/ml in a 2 mg/ml solution of purified wild type α-synuclein, and incubated at 37° C. Aliquot of 10 μl was collected in predetermined intervals. To the collected sample was added a buffer solution of 10 mM Tris-HCl, pH 7.4, containing a fluorescent dye thioflavine T (TfT), which specifically binds to a fibril structure, in a final concentration of 25 μM to make a volume of 100 μl, and fluorescence spectrum was monitored immediately (Ex 440 nm; Em 450-550 nm). The fibril formation rate and the amount thereof were determined from the increase in the fluorescence intensity of TfT.

## NH2-Val-Gly-Gly-Ala-Thr-Thr-Thr-Gly-Val-Thr-COOH (H-VGGATTTGVT-OH) [α-synuclein partial structure peptide, synthetic α-synuclein partial structure peptide consisting of 10 amino acid residues]
  decrease of the fibril formation ability of the wild type α-synuclein (to the extent of): about 20%
